Measurements reported in patent publication US20230118307A1, “THERAPEUTIC USE OF LONG-ACTING CONJUGATE OF TRIPLE AGONIST HAVING ACTIVITIES TO ALL OF GLUCAGON/GLP-1/GIP RECEPTORS FOR LUNG DISEASE” (HANMI PHARM. CO., LTD., priority 2020, published 2023).
Positions of bridges follow the written chain, without caps; N, C: chain ends. Non-standard residues stand in square brackets, D forms with d. No end group written: not given here. Aib = CC(C)(N)C(=O)O

What was measured:
Assay in all cases: cell-based or functional assay
human GLP-1 receptor = human GLP-1 receptor (human, UniProt P43220 24-463)
human GCG receptor = human GCG receptor (human, UniProt P47871 26-477)
Chain of human GCG receptor (P47871 26-477): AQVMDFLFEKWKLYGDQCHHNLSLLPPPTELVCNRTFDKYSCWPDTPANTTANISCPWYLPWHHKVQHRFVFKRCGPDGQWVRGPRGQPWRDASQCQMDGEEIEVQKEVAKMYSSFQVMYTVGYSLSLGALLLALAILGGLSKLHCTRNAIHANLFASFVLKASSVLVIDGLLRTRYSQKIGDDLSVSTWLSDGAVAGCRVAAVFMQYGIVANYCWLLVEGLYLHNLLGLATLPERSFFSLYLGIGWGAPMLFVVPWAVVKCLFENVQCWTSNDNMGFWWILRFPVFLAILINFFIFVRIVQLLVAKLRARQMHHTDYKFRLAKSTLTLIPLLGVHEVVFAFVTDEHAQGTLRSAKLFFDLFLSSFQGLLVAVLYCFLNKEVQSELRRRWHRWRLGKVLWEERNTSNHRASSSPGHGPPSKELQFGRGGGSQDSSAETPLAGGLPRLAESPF

human GIP receptor = molecular target: T1, human GIP receptor (human, UniProt P48546 22-466)
T1 sequence (looked up): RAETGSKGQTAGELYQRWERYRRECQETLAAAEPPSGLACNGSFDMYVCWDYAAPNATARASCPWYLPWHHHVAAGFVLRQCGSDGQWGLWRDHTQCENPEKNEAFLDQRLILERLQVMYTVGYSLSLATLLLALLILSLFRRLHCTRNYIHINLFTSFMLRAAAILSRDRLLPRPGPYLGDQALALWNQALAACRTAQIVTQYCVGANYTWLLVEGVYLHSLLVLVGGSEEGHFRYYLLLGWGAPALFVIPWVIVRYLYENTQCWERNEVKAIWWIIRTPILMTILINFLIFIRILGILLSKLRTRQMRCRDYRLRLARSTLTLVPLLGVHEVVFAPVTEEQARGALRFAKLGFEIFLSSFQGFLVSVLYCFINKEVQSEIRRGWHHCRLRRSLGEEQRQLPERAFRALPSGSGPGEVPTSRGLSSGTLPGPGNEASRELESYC

With H[Aib]QGTFTSDYSIAMDEIHQKDFVNWLLNTC (bridge 16-20) [triple agonist of SEQ ID NO: 57] the “In vitro Activity Compared to Native Peptide (%) vs. GLP-1” value (human GLP-1 receptor) was 11.7%, the “In vitro Activity Compared to Native Peptide (%) vs. Glucagon” value (human GCG receptor) was under 0.1% and the “In vitro Activity Compared to Native Peptide (%) vs. GIP” value (human GIP receptor) was 0.3%.

H[Aib]QGTFTSDYSIAMDEIHQKDFVNWLLAQC (bridge 16-20) [triple agonist of SEQ ID NO: 55] was tested, and the “In vitro Activity Compared to Native Peptide (%) vs. GLP-1” value (human GLP-1 receptor) was 27.1%, the “In vitro Activity Compared to Native Peptide (%) vs. Glucagon” value (human GCG receptor) was 0.7% and the “In vitro Activity Compared to Native Peptide (%) vs. GIP” value (human GIP receptor) was 2.4%.

For H[Aib]EGTFTSDYSIAMDEIHQKDFVNWLLAQC (bridge 16-20) [triple agonist of SEQ ID NO: 53], the “In vitro Activity Compared to Native Peptide (%) vs. GLP-1” value (human GLP-1 receptor) was 161%, the “In vitro Activity Compared to Native Peptide (%) vs. Glucagon” value (human GCG receptor) was 8.4% and the “In vitro Activity Compared to Native Peptide (%) vs. GIP” value (human GIP receptor) was 1.3%.

For HGQGTFTSDCSKQLDGQAAQEFVAWLLAGGPSSGAPPPS [triple agonist of SEQ ID NO: 44], the “In vitro Activity Compared to Native Peptide (%) vs. GLP-1” value (human GLP-1 receptor) was 1.3%, the “In vitro Activity Compared to Native Peptide (%) vs. Glucagon” value (human GCG receptor) was under 0.1% and the “In vitro Activity Compared to Native Peptide (%) vs. GIP” value (human GIP receptor) was under 0.1%.

HGQGTFTSDCSKYLDEQHAQEFVAWLLAGGPSSGAPPPS [triple agonist of SEQ ID NO: 46] was tested, and the “In vitro Activity Compared to Native Peptide (%) vs. GLP-1” value (human GLP-1 receptor) was 1.4%, the “In vitro Activity Compared to Native Peptide (%) vs. Glucagon” value (human GCG receptor) was under 0.1% and the “In vitro Activity Compared to Native Peptide (%) vs. GIP” value (human GIP receptor) was under 0.1%.

For HGQGTFTSDCSKYMDGQAAQDFVAWLLAGGPSSGAPPPS [triple agonist of SEQ ID NO: 45], the “In vitro Activity Compared to Native Peptide (%) vs. GLP-1” value (human GLP-1 receptor) was 6.6%, the “In vitro Activity Compared to Native Peptide (%) vs. Glucagon” value (human GCG receptor) was under 0.1% and the “In vitro Activity Compared to Native Peptide (%) vs. GIP” value (human GIP receptor) was under 0.1%.

HGQGTFTSDCSKYLDGQRAQEFVAWLLAGGPSSGAPPPS [triple agonist of SEQ ID NO: 47] was tested, and the “In vitro Activity Compared to Native Peptide (%) vs. GLP-1” value (human GLP-1 receptor) was 2.4%, the “In vitro Activity Compared to Native Peptide (%) vs. Glucagon” value (human GCG receptor) was under 0.1% and the “In vitro Activity Compared to Native Peptide (%) vs. GIP” value (human GIP receptor) was under 0.1%.

In the case of HGQGTFTSDCSKYLDGQRAQDFVNWLLAGGPSSGAPPPS [triple agonist of SEQ ID NO: 48], the “In vitro Activity Compared to Native Peptide (%) vs. GLP-1” value (human GLP-1 receptor) is reported as 1.5%, the “In vitro Activity Compared to Native Peptide (%) vs. Glucagon” value (human GCG receptor) is reported as under 0.1% and the “In vitro Activity Compared to Native Peptide (%) vs. GIP” value (human GIP receptor) is reported as under 0.1%.

H[Aib]QGTFTSDKSKYLDERACQDFVQWLLDGGPSSGAPPPS [triple agonist of SEQ ID NO: 40] was tested, and the “In vitro Activity Compared to Native Peptide (%) vs. GLP-1” value (human GLP-1 receptor) was 75.2%, the “In vitro Activity Compared to Native Peptide (%) vs. Glucagon” value (human GCG receptor) was under 0.1% and the “In vitro Activity Compared to Native Peptide (%) vs. GIP” value (human GIP receptor) was under 0.1%.

H[Aib]QGTFTSDVSSYLLGQQQKEFIAWLVKGC [triple agonist of SEQ ID NO: 4] was tested, and the “In vitro Activity Compared to Native Peptide (%) vs. GLP-1” value (human GLP-1 receptor) was 8.5%, the “In vitro Activity Compared to Native Peptide (%) vs. Glucagon” value (human GCG receptor) was under 0.1% and the “In vitro Activity Compared to Native Peptide (%) vs. GIP” value (human GIP receptor) was under 0.1%.

With H[Aib]QGTFTSDYSKYLDEKRAKEFVQWLLDHHPSSGQPPPSC (bridge 16-20) [triple agonist of SEQ ID NO: 50] the “In vitro Activity Compared to Native Peptide (%) vs. GLP-1” value (human GLP-1 receptor) was 67.4%, the “In vitro Activity Compared to Native Peptide (%) vs. Glucagon” value (human GCG receptor) was 50.5% and the “In vitro Activity Compared to Native Peptide (%) vs. GIP” value (human GIP receptor) was 2.7%.

H[Aib]QGTFTSDVSSYLDGQAAKEFIAWLVKGC [triple agonist of SEQ ID NO: 1] was tested, and the “In vitro Activity Compared to Native Peptide (%) vs. GLP-1” value (human GLP-1 receptor) was 3.2%, the “In vitro Activity Compared to Native Peptide (%) vs. Glucagon” value (human GCG receptor) was under 0.1% and the “In vitro Activity Compared to Native Peptide (%) vs. GIP” value (human GIP receptor) was under 0.1%.

With H[Aib]QGTFTSDKSKYLDECAAQDFVQWLLDGGPSSGAPPPS [triple agonist of SEQ ID NO: 41] the “In vitro Activity Compared to Native Peptide (%) vs. GLP-1” value (human GLP-1 receptor) was 34.3%, the “In vitro Activity Compared to Native Peptide (%) vs. Glucagon” value (human GCG receptor) was under 0.1% and the “In vitro Activity Compared to Native Peptide (%) vs. GIP” value (human GIP receptor) was under 0.1%.

For H[Aib]EGTFTSDYSIAMDEIHQKDFVDWLLAEC (bridge 16-20) [triple agonist of SEQ ID NO: 54], the “In vitro Activity Compared to Native Peptide (%) vs. GLP-1” value (human GLP-1 receptor) was 30.6%, the “In vitro Activity Compared to Native Peptide (%) vs. Glucagon” value (human GCG receptor) was 1.4% and the “In vitro Activity Compared to Native Peptide (%) vs. GIP” value (human GIP receptor) was 0.1%.

H[Aib]QGTFTSDVSSYLLGQQQKEFIAWLVKGGGPSSGAPPPSC (ends and bridges not checked) [triple agonist of SEQ ID NO: 5] was tested, and the “In vitro Activity Compared to Native Peptide (%) vs. GLP-1” value (human GLP-1 receptor) was 42.1%, the “In vitro Activity Compared to Native Peptide (%) vs. Glucagon” value (human GCG receptor) was under 0.1% and the “In vitro Activity Compared to Native Peptide (%) vs. GIP” value (human GIP receptor) was under 0.1%.

In the case of Y[Aib]QGTFTSDYSKYLDEKRAKEFVQWLLDHHPSSGQPPPSC (bridge 16-20) [triple agonist of SEQ ID NO: 42], the “In vitro Activity Compared to Native Peptide (%) vs. GLP-1” value (human GLP-1 receptor) is reported as 33.9%, the “In vitro Activity Compared to Native Peptide (%) vs. Glucagon” value (human GCG receptor) is reported as 206% and the “In vitro Activity Compared to Native Peptide (%) vs. GIP” value (human GIP receptor) is reported as 7.8%.
